According to IntAct's records for PubMed 28869608:

B1: Protein canopy homolog 2 (Mus musculus), Q9QXT0 (parent)
chain: MKGWGWLALLLGVLLGTAWARRSQDLHCGACRALVDELEWEIARVDPKKTIQMGSFRINPDGSQSVVEVPYARSEAHLTELLEEVCDRMKEYGEQIDPSTHRKNYVRVVSRNGESSELDLQGIRIDSDISGTLKFACESIVEEYEDELIEFFSREADNVKDKLCSKRTDLCDHALHRSHDEL
partner: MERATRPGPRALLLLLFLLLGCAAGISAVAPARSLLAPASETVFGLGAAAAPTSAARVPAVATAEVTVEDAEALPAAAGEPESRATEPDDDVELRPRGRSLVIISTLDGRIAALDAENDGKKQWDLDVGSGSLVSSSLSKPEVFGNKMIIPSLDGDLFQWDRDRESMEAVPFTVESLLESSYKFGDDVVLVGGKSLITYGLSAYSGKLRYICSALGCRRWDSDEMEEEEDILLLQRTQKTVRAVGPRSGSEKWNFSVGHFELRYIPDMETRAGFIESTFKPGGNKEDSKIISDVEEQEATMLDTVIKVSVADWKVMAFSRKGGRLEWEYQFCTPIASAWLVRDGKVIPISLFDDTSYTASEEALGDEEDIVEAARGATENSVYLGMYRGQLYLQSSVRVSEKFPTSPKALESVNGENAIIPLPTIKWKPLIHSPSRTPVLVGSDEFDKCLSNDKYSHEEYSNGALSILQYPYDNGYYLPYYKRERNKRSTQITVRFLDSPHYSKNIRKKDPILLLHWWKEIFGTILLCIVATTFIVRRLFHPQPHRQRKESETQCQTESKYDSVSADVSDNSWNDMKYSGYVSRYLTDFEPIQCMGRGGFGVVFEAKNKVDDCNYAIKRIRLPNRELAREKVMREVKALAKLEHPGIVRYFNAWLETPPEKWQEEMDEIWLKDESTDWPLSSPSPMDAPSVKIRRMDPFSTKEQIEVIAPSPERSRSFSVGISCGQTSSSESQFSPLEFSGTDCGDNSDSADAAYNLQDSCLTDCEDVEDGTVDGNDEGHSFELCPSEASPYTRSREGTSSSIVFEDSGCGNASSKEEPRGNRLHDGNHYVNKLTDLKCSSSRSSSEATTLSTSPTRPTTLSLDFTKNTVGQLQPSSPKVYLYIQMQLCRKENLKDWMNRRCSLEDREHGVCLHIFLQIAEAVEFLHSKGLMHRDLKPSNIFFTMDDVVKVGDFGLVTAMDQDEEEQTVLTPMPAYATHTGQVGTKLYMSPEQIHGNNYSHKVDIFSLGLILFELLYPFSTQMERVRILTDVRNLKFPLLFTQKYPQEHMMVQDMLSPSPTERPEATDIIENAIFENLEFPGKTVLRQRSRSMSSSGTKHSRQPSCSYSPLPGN

Variants of: B1
Details: with Eif2ak3, Q9Z2B5

effect of a mutation on the interaction	Variant
disrupting interaction	C28A;C31A;C86A;C137A;C164A;C171A

Variants of: B1
Details: with Eif2ak3, Q9Z2B5
Remark: another data set of the same source

effect of a mutation on the interaction	Variant
increasing interaction	C28A;C31A;C86A
